Assay [1] addresses T1, SAT C-terminal C10 peptide C-terminal 10 residues (Haemophilus influenzae, UniProt P43886).
T1 chain: GIDDGMNLNI
The assay is described as follows: PLP fluorescence titration.

Assay [2] concerns the target T2, SAT C-terminal C10 peptide C-terminal 10 residues (Salmonella typhimurium, UniProt P29847).
T2 chain: HHTFEYGDGI
Nature of the assay: PLP fluorescence titration.

B1: Cysteine synthase (HiCS) (protein)
chain: MAIYADNSYSIGNTPLVRLKHFGHNGNVVVKIEGRNPSYSVKCRIGANMVWQAEKDGTLTKGKEIVDATSGNTGIALAYVAAARGYKITLTMPETMSLERKRLLCGLGVNLVLTEGAKGMKGAIAKAEEIVASDPSRYVMLKQFENPANPQIHRETTGPEIWKDTDGKVDVVVAGVGTGGSITGISRAIKLDFGKQITSVAVEPVESPVISQTLAGEEVKPGPHKIQGIGAGFIPKNLDLSIIDRVETVDSDTALATARRLMAEEGILAGISSGAAVAAADRLAKLPEFADKLIVVILPSASERYLSTALFEGIEG
B1 showed a Kd in assay [1] of 3.4 µM. That is a single-digit micromolar value.

B2: Cysteine synthase (StCS) (protein)
chain: SKIYEDNSLTIGHTPLVRLNRIGNGRILAKVESRNPSFSVKCRIGANMIWDAEKRGVLKPGVELVEPTSGNTGIALAYVAAARGYKLTLTMPETMSIERRKLLKALGANLVLTEGAKGMKGAIQKAEEIVASDPQKYLLLQQFSNPANPEIHEKTTGPEIWEDTDGQVDVFISGVGTGGTLTGVTRYIKGTKGKTDLITVAVEPTDSPVIAQALAGEEIKPGPHKIQGIGAGFIPGNLDLKLIDKVVGITNEEAISTARRLMEEEGILAGISSGAAVAAALKLQEDESFTNKNIVVILPSSGERYLSTALFADLFTEKELQQ
In assay [2], B2 returned a Kd of 290 nM.

The Kd is the concentration at which binding is half-saturated. Read a high Kd as a looser complex.
